This passage reports reverse-splicing fitness results from the RNAGym collection of RNA variant scans (doi:10.1093/molbev/msab373).

B1: Azoarcus group I ribozyme (parent)
chain: GUGCCUUGCGCCGGGAAACCACGCAAGGGAUGGUGUCAAAUUCGGCGAAACCUAAGCGCCCGCCCGGGCGUAUGGCAACGCCGAGCCAAGCUUCGGCGCCUGCGCCGAUGAAGGUGUAGAGACUAGACGGCACCCACCUAAGGCAAACGCUAUGGUGAAGGCAUAGUCCAGGGAGUGGCGAAAGUCACACAAACCGG

The data set covers variants of B1. Briefly: reverse-splicing fitness (ratio to wild type); higher = more active; in vitro selection; Mg2+ level not given. In short, it runs like this:
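An in vitro group I ribozyme library with randomized positions was T7-transcribed and gel-purified. In triplicate, 10 pmol RNA in EPPS pH 7.5 was reacted with 50 pmoles of a 30-nt RNA substrate for 1 h at 37 °C across several added MgCl2 levels (1–48 mM), then stopped with EDTA. Products were reverse transcribed from a substrate-complementary primer, PCR-amplified and sequenced (HiSeq 4000). Fitness is a variant's read proportion after selection over that before, normalised to wild type.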
As for C82G A145U C150A C169G U176A, the reverse-splicing fitness is 0.0109.
As for C82G A111G A120U A145G C150U C169G, the reverse-splicing fitness was found to be 0.00707.
In the case of C82G A111U A120U A145G C150A U176G, the reverse-splicing fitness was found to be 0.00383.
For C82A A111G A120U A145G C169G U176C, the reverse-splicing fitness was found to be 0.00421.
With C82A A111G A120U A145C C150A C169G U176A, the reverse-splicing fitness is 0.00315.
With C82U A120C A145U C169G, the reverse-splicing fitness turned out to be 0.00567.
The figure for C82G A111U A120C A145U C150A C169A is 0.0103; for C82G A111U C150U C169U U176G it is 0.00694; for C82U A120C A145C C150G U176A it is 0.00639.
As to C82U A145C C150A C169U U176C, the reverse-splicing fitness worked out at 0.00693.
On to C82A A111U A120C A145G C150A C169U U176G, for which the reverse-splicing fitness worked out at 0.00879.
Consider C82G A120U C150U C169A U176A, for which the reverse-splicing fitness was 0.00417.
With C82G A111G A145C the figure was 0.392.
With C82U A120U A145C C169U the figure was 0.00535.
With C82U A111U A120C A145G C150U C169U the figure was 0.0108; with C82G A111C A120G A145C C150G C169A U176C, 0.00738.
Consider C82A A120U C150U C169G U176G, for which the reverse-splicing fitness is 0.00165.
With A111U A120G A145G C169G U176C the figure was 0.0601.
Regarding A111C A120G C169A, the reverse-splicing fitness is 0.131.
Consider C82A A120U C150A, for which the reverse-splicing fitness was 0.016.
The figure for C82G A145U C150A C169U U176A is 0.0124.
As to A120C A145G C150A C169U, the reverse-splicing fitness was determined as 0.134.
On to C82G A120U A145U C150G, for which the reverse-splicing fitness was 0.0173.
Consider A111C A120U A145U C169U U176G, for which the reverse-splicing fitness turned out to be 0.00286.
With A111C A120G A145U C169G the figure was 0.203; with C82G A111U A145G C150G C169U U176C, 0.0134.
With C82U A120C A145G C150G U176G, the reverse-splicing fitness worked out at 0.00605.
As to C82A A111U U176G, the reverse-splicing fitness is 0.026.
Take C82G A111C A145C C169G U176G: the reverse-splicing fitness was determined as 0.00663.
On to C82A A111C A145C C150G C169A U176C, for which the reverse-splicing fitness is 0.00911.
In the case of C82A A120G A145U C150G C169G U176A, the reverse-splicing fitness turned out to be 0.0066.
Take C82U A111U A120C C150A C169G U176G: the reverse-splicing fitness was determined as 0.00669.
For the variant A145C C150A C169A U176A, the reverse-splicing fitness was found to be 0.0107.
Consider C82G A111G A120C C150G, for which the reverse-splicing fitness was 0.0105.
In the case of C82G A111C A120U A145G C169A U176G, the reverse-splicing fitness was 0.00218.
With A111U A120C A145U C169A U176C the figure was 0.0106; with C82G A111C A120U A145U C150U C169A U176G, 0.00223.
With A111U A120C A145G C150G C169A U176C the figure was 0.0123; with A111C A120U A145G C150A U176G, 0.0111.
The figure for C82G A111U A120G U176A is 0.0148; for C82A A111U A120U A145G C150A C169G U176C it is 0.00688.
On to C82U A145U C150U U176A, for which the reverse-splicing fitness is 0.274.
With C82U A120C C150U C169G the figure was 0.00713; with C82A A111U A120U C150A U176C, 0.00653.
In the case of C82A A111U A145G C150A U176G, the reverse-splicing fitness stood at 0.0112.
The figure for A111U A145C C169G U176C is 0.0232; for C82U A145U C169G it is 0.00906.
With C82A A111C A120C C150A C169U U176A the figure was 0.0173; with A111C A120U A145U C150U, 0.491.
For C82G A111C A120U C150A C169U U176C, the reverse-splicing fitness worked out at 0.00469.
As to C82G A111U A145G C150A C169U, the reverse-splicing fitness turned out to be 0.0113.
With C82U A111U A120U A145C C150U U176G, the reverse-splicing fitness was 0.0026.
With A111G A120U A145C C150A the figure was 0.0434; with A111C A120C A145C C150A C169G U176G, 0.007.
Consider A111C A120C C169A U176C, for which the reverse-splicing fitness was 0.0161.
Take C82G A111U A120C C150U C169A U176A: the reverse-splicing fitness amounted to 0.0158.
Regarding A111U A145C C150G C169A U176C, the reverse-splicing fitness came to 0.00643.
In the case of C82A A111G A145U C150A C169U U176A, the reverse-splicing fitness stood at 0.0132.
In the case of A111G A120G A145G C150G C169U U176G, the reverse-splicing fitness came to 0.00654.
With C82G A111U A120U A145C C169A U176C, the reverse-splicing fitness was found to be 0.00232.
Turning to C82G A111U A120G A145C C150U C169G, the reverse-splicing fitness stood at 0.00915.
Consider C82A A111U C169U, for which the reverse-splicing fitness came to 0.014.
For C82U A111C A120U A145C C169G U176C, the reverse-splicing fitness stood at 0.00215.
Consider A111C A120C A145C C150U U176G, for which the reverse-splicing fitness is 0.0168.
In the case of C82G A120U A145C C150U C169U U176C, the reverse-splicing fitness turned out to be 0.00227.
With C82A A111G A120C C150U C169G U176C the figure was 0.0203; with A111U A120C C150A C169U U176G, 0.00713; with C82G A111C A120C C169G, 0.00886.
Consider C82U A111C A145U C150G C169A U176G, for which the reverse-splicing fitness turned out to be 0.00824.
For the variant C82G A111C C150A U176G, the reverse-splicing fitness came out at 0.0116.
In the case of A111G A120C A145U C150G C169G U176A, the reverse-splicing fitness was found to be 0.00655.
The figure for C82G A111U A120G C150G C169G is 0.00797.
As for A111U A120U A145C C169G U176C, the reverse-splicing fitness was found to be 0.00515.
In the case of A120G A145C C150A C169G U176C, the reverse-splicing fitness stood at 0.0391.
For the variant A111G A120G C169U, the reverse-splicing fitness stood at 0.236.
Regarding C82G A120U A145U C150G C169A, the reverse-splicing fitness came out at 0.00271.
The figure for C82G A120U A145G C150A C169A is 0.00575; for C82U A111U A120G A145C C150G C169A U176G it is 0.00478; for C82G A111G A120C A145G C150U C169G U176C it is 0.0192.
For the variant A111U A120G A145U C150A U176G, the reverse-splicing fitness came to 0.00474.
The figure for C82G A145G C150G C169U U176A is 0.0126; for A111G A145G C150U C169U U176A it is 0.0415.
With A120G A145U C150G C169G U176C, the reverse-splicing fitness was 0.011.
On to C82U A120U A145G C150U C169A U176C, for which the reverse-splicing fitness was determined as 0.00278.
